Laboratory results reported in publication PMC9614494.
pKd: −log10 of the molar value.

Molecular target: recombinant 6xHis-GBP (Arabidopsis thaliana) (UniProt Q9LU39)
Assay: MST; 6xHis-GBP labelled with RED-NHS 2nd generation as target, with or without GluTR, ligand in 1:1 dilutions from 5 nM to 110 µM; Monolith NT.115, 30°C, 40% LED power, PBS

Chain of recombinant 6xHis-GBP (Arabidopsis thaliana) (Q9LU39 43-317): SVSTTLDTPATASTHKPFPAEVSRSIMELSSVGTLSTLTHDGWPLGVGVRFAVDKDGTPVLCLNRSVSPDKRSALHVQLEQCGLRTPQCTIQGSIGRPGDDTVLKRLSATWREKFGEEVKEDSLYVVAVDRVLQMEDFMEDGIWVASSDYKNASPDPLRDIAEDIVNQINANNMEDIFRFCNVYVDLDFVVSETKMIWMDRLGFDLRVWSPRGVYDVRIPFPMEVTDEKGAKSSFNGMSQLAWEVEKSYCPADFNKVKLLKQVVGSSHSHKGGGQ

A pKd of 7.38 was found for “recombinant 6xHis-GluTR (from UniProt P42804 62-543) (enzyme)” in this work.
